Data set [1] can be described thus: QELS particle size and zeta potential of peptide DNA condensates, Example 6. Conditions: charge ratio 4:1, 50 μg/ml DNA in HBM; for Particle Size (nm): 90°, average and SD of three, No particles formed; for Zeta Potential (mV): average and SD of ten. Format: physicochemical. How it is done:
The particle size and zeta potential of peptide DNA condensates were determined by quasielastic light scattering (QELS) using a Brookhave ZetaPlus™. Particle size analysis was performed in triplicate at a DNA concentration of 50 μg/ml in HBM at a charge ratio of 4:1 and a scattering angle of 90°. Data analysis utilized a multimodal volume distribution option included with the instrument. Zeta potential was also determined using 50 μg/ml peptide DNA condensates prepared at a 4:1 charge ratio in HBM. The reported zeta potential was averaged from ten determinations.

Data set [2] is described as follows: Shear stress stability of cross-linked DNA condensates (salt sonication), Example 5. Format: physicochemical. Conditions: 30 sec sonication; highest lane 2.5 M. How it is done:
Peptide DNA condensates (200 μl of 50 μg/ml) were formed and incubated at RT for 30 min and then combined with 0 to 200 μl of 5 M sodium chloride and normalized to 400 μl with HBM to achieve a final sodium chloride concentration of 0, 0.2, 0.4, 0.8, 1.0, 1.5, 2.0, and 2.5 M. Each sample was sonicated for 30 sec with a 100 W Microson™ XL-2000 ultrasonic probe homogenizer (Kontes, Vineland N.J.) with a vibrational amplitude of 6 to fragment uncondensed DNA (Adami et al., 1998). DNA condensates were digested with 30 μg of trypsin for 12 h at 37° C. then electrophoresed on an agarose gel and visualized by ethidium bromide staining.

For data set [3], the system named is HepG2 cells. The data set can be described thus: Cell uptake of 125I-DNA condensates in HepG2 cells, Example 5. Format: cell-based. Conditions: HepG2, 5 h transfection. Here is the method:
Iodinated plasmid DNA (pCMVL) was prepared with specific activity of 300 nCi per μg of DNA as described previously (Terebesi et al., 1998). Prior to forming DNA condensates, the specific activity of the ^125I DNA was adjusted to 4.5 nCi μg of DNA by combining with unlabeled plasmid. DNA condensates were prepared using AlkCWK18 or peptide II as described above. Peptide ^125I-DNA condensates (10 μg) were used to transfect HepG2 and COS 7 cells for 5 h according to the procedure described above. The radioactive media was removed, cells were washed once with 2 ml of 1 M sodium chloride and three times with 2 ml of cold PBS and then harvested with 1 ml of lysis buffer. The cell-associated radioactivity from triplicate transfections was quantified by gamma counting.

Data set [4] can be described thus: QELS particle size and zeta potential of cross-linking peptide DNA condensates, Example 5. Format: physicochemical. Conditions: for Particle Size Mean Diameter, Oxidized, 15° / Particle Size Mean Diameter, Oxidized, 90°: HBM after 2 h incubation, 50 μg/ml DNA, 0.4 nmol peptide per μg DNA; for Particle Size Mean Diameter, Oxidized, 15°: scattering angle 15°; for Particle Size Mean Diameter, Oxidized, 90°: scattering angle 90°; for Particle Size Mean Diameter, Saline: HBM with added saline (0.15 M) after 15 min; for Particle Size Mean Diameter, Reduced: following addition of TCEP (1 mM). In outline: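 Condensates at 50 μg/ml DNA in HBM, 0.4 nmol peptide per μg DNA (charge ratio ~2:1); size by QELS at 15° and 90°, mean diameter from diffusion coefficient by unimodal cumulant analysis. Peptide IV series: 7.5-37.5 nmol peptide with 75 μg DNA, charge ratio 0.5-2.5; zeta potential averaged over 10 determinations.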

A short description of data set [5]: Shear stress stability (salt sonication assay), Example 6. Format: physicochemical. Conditions: 30 sec sonication; highest tested 2.5 M. Here is the method: The relative stability of peptide DNA condensates were examined using a salt sonication assay (Adami and Rice, 1999). Peptide DNA condensates (200 μl of 50 μg/ml) were formed as described above, incubated at RT for 30 min and then combined with 0-200 μl of 5 m […] and normalized to 400 μl with HBM to achieve a final sodium chloride concentration of 0, 0.2, 0.4, 0.8, 1.0, 1.5, 2.0 and 2.5 M. Each sample was sonicated for 30 sec with a 100 W Microson™ XL-2000 ultrasonic probe homogenizer (Kontes, Vineland N.J.) with a vibrational amplitude of 5 fragment uncondensed DNA. DNA condensates were digested with 30 μg to trypsin for 12 h at 37° C., electrophoresed on a 1% agarose gel electrophoresed in TEA buffer for 2 h, then visualized by ethidium bromide staining and destaining prior to photography on a transilluminator.

Data set [6] concerns COS 7 cells. As to the kind of experiment: Luciferase reporter gene expression in COS 7 cells, Example 5. It counts as cell-based. In general terms: Reporter assays use an easily measured gene product as a stand-in for the process of interest.
In data set [7] the test system is HepG2, COS 7 and CHO cells. The data set can be described thus: Luciferase gene expression, result stated for each of three cell lines, Example 6. It counts as cell-based. How it is done:
HepG2 cells (1.5×10^5) were plated on 6×35 mm wells and grown to 50% confluencey in MEM supplemented with 10% FBS, penicillin and streptomycin (100 U/ml), sodium pyruvate (100 mM), and L-glutamine (2 mM). Transfections were performed in MEM (2 ml per 35 mm well) with 2% FBS with and without 80 μM chloroquine. Peptide DNA condensates (10 μg of DNA of 0.2 ml HBM) were added dropwise to triplicate wells. After a 5 h incubation at 37° C., the medium was replaced with MEM supplemented with 10% FBS. After 24 h, cells were washed with ice-cold phosphate buffered saline (calcium and magnesium free) and then treated with 0.5 ml of ice-cold lysis buffer (25 mM) Tris chloride pH 7.8, 1 mM EDTA, 8 mM magnesium chloride, 1% Triton X-100, 1 mM DTT) for 10 min. […]
Lysis buffer (300 μl), sodium-ATP (4 μl of a 180 mM solution, pH 7, 4° C.) and cell lysate (100 μl, 4° C.) were combined in a test tube, briefly mixed and immediately placed in the luminometer. Luciferase relative light units (RLU) were recorded on a Lumat™ LB 9501 (Berthoid Systems, Germany) with 10 sec integration after automatic injection of 100 μl of 0.5 mM D-luciferin (prepared fresh in lysis buffer without DTT). […] Protein concentrations were measured by Bradford assay using bovine serum albumin as a standard (Bradford, 1976). […]

Where no end group is shown, it is not given here. The star is where a group is joined. Carboxymethyl = O=C(O)C*

As to “Cys-Trp-Lys17-Cys (CWKKKKKKKKKKKKKKKKKC) [Peptide II]”, in data set [1], the “Particle Size (nm)” value is 53 ± 16 nm and the “Zeta Potential (mV)” value turned out to be 28 ± 9 mV. Moreover, the “sodium chloride concentration up to which DNA is protected from sonicative fragmentation” value in data set [2] was determined as 1.0 M. The “125I-DNA uptake, % of dose” value in data set [3] is 8.7 % of dose. Further, in data set [4], the “Particle Size Mean Diameter, Oxidized, 15°” value was found to be 31 nm; the “Particle Size Mean Diameter, Oxidized, 90°” value came out at 42 nm; the “Particle Size Mean Diameter, Saline” value was 257 nm; the “Particle Size Mean Diameter, Reduced” value worked out at 121 nm. For the same substance, in data set [5], the “sodium chloride concentration up to which DNA condensates are stable” value is on record as 1 M. Also, in data set [6], the “increase in luciferase gene expression relative to AlkCWK18” value came to 10 fold. Further, the “enhancement of gene expression over peptide 1 DNA condensates” value in data set [7] (in each cell line tested, charge ratio 4, 80 μM chloroquine) is 10 to 40 fold.
Consider “Alk-S-Cys-Trp-Lys18 (C(Carboxymethyl)WKKKKKKKKKKKKKKKKKK) [AlkCWK18]”, for which, in data set [1], the “Particle Size (nm)” value is reported as 64 ± 11 nm and the “Zeta Potential (mV)” value is 26 ± 1 mV. In data set [2], the “sodium chloride concentration up to which DNA is protected from sonicative fragmentation” value came to 0.4 M. For the same substance, the “125I-DNA uptake, % of dose” value in data set [3] is on record as 9.5 % of dose. Besides, in data set [4], the “Particle Size Mean Diameter, Oxidized, 15°” value amounted to 97 nm; the “Particle Size Mean Diameter, Oxidized, 90°” value was found to be 95 nm; the “Particle Size Mean Diameter, Saline” value is 1215 nm; the “Particle Size Mean Diameter, Reduced” value amounted to 74 nm. Moreover, in data set [5], the “sodium chloride concentration up to which DNA condensates are stable” value came to 0.4 M. Further, in data set [7] (in each cell line), the “lower gene expression in the absence of chloroquine relative to presence of 80 μM chloroquine” value is listed as 10-15 fold.

The values above are taken from patent US6770740B1, “Crosslinked DNA condesate compositions and gene delivery methods” (The Regents of the University of Michigan, priority 1999, dated 2004).
